Laboratory results from patent publication US11945858B2, “Antibodies and antibody fragments against HNAV1.7 channel and their use in pain and cancer indications” (NATIONAL RESEARCH COUNCIL OF CANADA, priority 2018, dated 2024).
“Also recorded” adds a separate entry of the source.

Legend:
[1] = target: hNav1.7 channels (Homo sapiens, UniProt Q15858, W1161R); assay: Patch-clamp whole-cell recordings in hNav1.7-HEK293 cells; format: cell-based
[2] = test system: CFA-induced thermal hyperalgesia; assay: Hargreaves Model of Hyperalgesia in rats; format: in vivo, rat; settings: for Percentage of maximum possible effect (% MPE): 4 h (FIG. 27B)
Experimental: Hargreaves Model of Hyperalgesia in rats. Rats aged 4-6 weeks (weight range, 180-220 g) were used for intraplantar (ipl) administrations of various antibodies and evaluation of their efficacy in the Hargreaves model of inflammatory pain. Chronic inflammatory pain is induced by injecting a low volume (50 μl) of complete Freund's adjuvant (CFA; heat-killed M. tuberculosis—Sigma, St. Louis, Mo.—suspended in oil:saline 2:1 emulsion) into the right hind paw. The paw withdrawal latency in response to the application of a radiant stimulus onto the plantar surface of both right and left paw was measured using the plantar Analgesia Meter equipment for paw stimulation (IITC Life Science, Woodland Hills, Calif.). The time taken by the animal to respond by licking or flicking its paw is interpreted as positive response (paw withdrawal latency). After 48 h of the CFA injection, the baseline for latency paw withdrawal was measured and the mAbs tested. […] A cut-off time (20 sec) is established at the end of which the heat source shuts off automatically to avoid tissue damage. Animals were kept (randomized) one per cage and staff performing pain experiments are blinded to the content of injectable compounds. Percentage of maximum possible effect (% MPE) was calculated using the formula % MPE=(Test Latency−Baseline Latency)×100/(Cut-off−Baseline Latency).

[3] = test system: OD1-evoked Nav1.7-mediated spontaneous pain behaviours; format: in vivo, mouse; settings: 50 μg VHH
[4] = target: T1, FC5DIE3IR (Homo sapiens, UniProt Q15858); assay: Surface Plasmon Resonance for VHH antibodies, immobilized FC5DIE3IR; format: binding; settings: SPR
T1 construct: The supernatant was collected and loaded on a 5 ml MabSelect™ SuRe™ column; made in house; host or cells: CHO-3E7 (transient, pTT5 vector), purified from supernatant
Experimental: (§1) Surface Plasmon Resonance for VHH antibodies. For SPR experiments, IMAC-purified VHHs DI-D, DI-4, DI-16, DI-28 and DI-48 were passed through a Superdex 75 (GE Healthcare) column for SEC purification in HBS-EP+buffer (10 mM HEPES, pH 7.4, containing 150 mM NaCl, 3 mM EDTA and 0.05% P20), connected to an AKTAPurifier (GE Healthcare) at a flow rate of 1 ml/min. Monomeric VHH fractions were collected and protein concentration determined by measuring A280 measurement. Using a Biacore T200 instrument (GE Healthcare), approximately 500-1000 RUs of FC5DIE3IR, FC5 and an irrelevant VHH (2A3-H4) were immobilized on a CM5 Series S sensor chip (GE Healthcare) at pH 4.0 using standard amine coupling according to the manufacturer's instructions (GE Healthcare). […] Surfaces were regenerated by washing with a 120 s pulse of 10 mM glycine pH 1.5. Data were analyzed with Biacore T200 Software v 3.0 and affinities determined using steady state binding or a 1:1 binding model.

[5] = test system: FC5; assay: Surface Plasmon Resonance for VHH antibodies, immobilized FC5; format: binding; settings: SPR; 25 C
Sequence of FC5 (as listed by the source): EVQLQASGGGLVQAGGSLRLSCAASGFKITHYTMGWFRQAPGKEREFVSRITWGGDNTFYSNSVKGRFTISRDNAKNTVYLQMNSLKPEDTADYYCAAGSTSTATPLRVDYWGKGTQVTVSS
Experimental: as §1

[6] = test system: 2A3-H4; assay: Surface Plasmon Resonance for VHH antibodies, immobilized irrelevant VHH 2A3-H4; format: binding; settings: SPR; 25 C
Experimental: as §1

[7] = test system: VHH FC5; assay: Phage ELISA on VHH FC5; format: binding
Sequence of VHH FC5 (as listed by the source): as above
Experimental: FIG. 25A Phages were rescued from individual colonies, selected from the fourth round of panning and grown overnight at 37° C. Wells of a Nunc microtiter plate were coated with FC5DIE3IR and FC5 proteins at 5 μg/ml in PBS. After blocking, 100 μl of phage supernatants (from clones A-H) were added to the respective wells followed by incubation for 1 h at room temperature and addition of anti-M13-HRP conjugate. Binding was detected with TMB substrate and A450 was measured using an ELISA plate reader. As shown, six positive clones (DI-A, DI-B, DI-C, DI-D, DI-E and DI-H), having a signal of at least 3× background, were identified by phage-ELISA.
Additional rounds (up to 3) of panning were performed by coating the ELISA plate with the same proteins and using the amplified phages after each round of panning as described above. After four rounds of panning, 77 randomly picked colonies were grown and subjected to monoclonal phage ELISA screening as described previously (Arbabi-Ghahroudi et al., 2009) except that 5 μg/ml of FC5DIE3IR and FC5 VHH (the negative control) were coated onto a microtiter plate. All positive clones specifically binding to FC5DIE3IR were sequenced and unique VHH sequences were selected for sub-cloning, large-scale expression, and purification. A total of 6 VHHs specific to FC5DIE3IR were isolated. […]

[8] = test system: FC5DIIIDIR (extracellular loop DIII of the hNav1.7 channels grafted to FC5 scaffold); assay: Phage ELISA on FC5DIIIDIR; format: binding, human
[9] = −20 mV, after antibody application (1 μM)

B1: DI-D: anti-hNav1.7 VHH from phage-displayed LAC-M naïve library; SEQ ID NO: 38 (protein)
VHH: QVKLEESGGGLVQPGGSLKLSCVASGFAFSSAPMDWVRKAPGKDVEWLSTIESDQDHTIYYANSVKGRFTISRDDVQNILYLQMNDLKIEDTATYYCQKRGEKKTRGQGTQVTVSS
modifications: DI-D
Reduction currents (%) ([1]; 1 μM): 11.7%±5.8 | Time constant of the block of the hNav1.7 currents (effect onset) ([1]; 1 μM): 113 ± 11 s | Voltage-dependence of activation (shift V1/2 activation) ([1]; 1 μM): −6.1±1.0 mV | Voltage-dependence of the steady-state fast inactivation (shift V1/2 inactivation) ([1]; 1 μM): −6.8±1.5 mV | hNav1.7 current remaining, % of control ([1]; 1 μM, 500 sec recording (FIG. 26B)): approx. 91% | Onset time of the effect (exponential fit of the current decay, T) ([1]; 1 μM, single time-course recording of the figure): 150 s | Reduction currents (%) ([1]; 2 μM): 15.0%±6.9 | Time constant of the block of the hNav1.7 currents (effect onset) ([1]; 2 μM): 200 ± 45 s | Reduction currents (%) ([1]; 3 μM): 24.1%±5.6 | Effect on hNav1.7 currents (in words) ([1]; example recordings, 1-3 μM): reduced hNav1.7 current in a dose dependent manner | Efficacy (degree of maximum inhibition) ([1]; resting/closed state): 27.4±5. % | Fast inactivation (time constant) [1, 9]: 1.29 ± 0.30 ms | Time-to-peak [1, 9]: 1.64 ± 0.37 ms | Latency paw withdrawal ([2]; 50 μg intraplantar, 4 h): 8.36 ± 0.53 s | Percentage of maximum possible effect (% MPE) ([2]; 50 μg intraplantar): 21.59%±4.05 | Latency paw withdrawal ([2]; 100 μg intraplantar, 1 h): 13.35 ± 0.44 s | Latency paw withdrawal ([2]; 100 μg intraplantar, 2 h): 11.40 ± 0.69 s | Latency paw withdrawal ([2]; 100 μg intraplantar, 4 h): 11.78 ± 0.50 s | Percentage of maximum possible effect (% MPE) ([2]; 100 μg intraplantar): 45.19%±4.40 | Effect on spontaneous pain behaviours evoked by OD1 (in words) [3]: reversed spontaneous pain behaviours | Time spent in pain behaviors (saline plus OD1 = 100%) ([3]; injected 60 minutes prior to OD1, 20 min after the injection): 44.33%±8.8 | Binding to immobilized FC5DIE3IR (comment, in words) [4]: clear binding; also recorded: binds specifically | Binding to immobilized FC5 (comment, in words) [5]: trace amounts of binding; also recorded: Weak/residual binding | Binding to immobilized 2A3-H4 (comment, in words) [6]: No binding | Binding of the phage to VHH FC5 (in words) [7]: did not bind | Binding of the phage to FC5DIIIDIR (in words) [8]: did not bind
